Publication PMC6597238, “The GluTR-binding protein is the heme-binding factor for feedback control of glutamyl-tRNA reductase” (eLife, 2019)

T1: 6xHIS-GluTR1 (glutamyl-tRNA reductase 1) (Arabidopsis, UniProt P42804 62-543)
T1 construct: glutamyl-tRNA reductase 1 (GluTR1), Arabidopsis, encoded by HEMA1; Czarnecki et al., 2011; Wang et al., 2018; source: E. coli BL21, purified (Ni-NTA)
T1 sequence (looked up): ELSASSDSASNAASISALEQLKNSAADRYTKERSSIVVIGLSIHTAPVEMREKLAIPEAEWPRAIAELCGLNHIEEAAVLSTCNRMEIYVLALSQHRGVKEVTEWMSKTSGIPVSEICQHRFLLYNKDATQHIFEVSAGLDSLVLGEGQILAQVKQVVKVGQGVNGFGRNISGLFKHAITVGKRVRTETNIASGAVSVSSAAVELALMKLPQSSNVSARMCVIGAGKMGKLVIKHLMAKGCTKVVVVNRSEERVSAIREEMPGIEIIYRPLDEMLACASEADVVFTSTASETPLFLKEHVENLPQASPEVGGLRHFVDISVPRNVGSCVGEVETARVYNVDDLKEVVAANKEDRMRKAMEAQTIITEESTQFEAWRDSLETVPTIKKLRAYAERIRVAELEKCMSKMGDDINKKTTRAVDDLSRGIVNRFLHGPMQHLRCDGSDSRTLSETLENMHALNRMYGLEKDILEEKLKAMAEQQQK

T2: 6xHIS-GluTR1-FLUO (fluorophore-labeled 6xHIS-GluTR1) (Arabidopsis, UniProt P42804 62-543, fluorophore from the RED-NHS (Amine Reactive) protein labeling kit (second generation))
T2 construct: glutamyl-tRNA reductase 1 (GluTR1), Arabidopsis, encoded by HEMA1; same construct as m1, labeled; m1 after amine-reactive labelling; also called labeled HIS-GluTR; source: E. coli BL21, purified (Ni-NTA), labeled with the RED-NHS protein labeling kit
T2 sequence (looked up): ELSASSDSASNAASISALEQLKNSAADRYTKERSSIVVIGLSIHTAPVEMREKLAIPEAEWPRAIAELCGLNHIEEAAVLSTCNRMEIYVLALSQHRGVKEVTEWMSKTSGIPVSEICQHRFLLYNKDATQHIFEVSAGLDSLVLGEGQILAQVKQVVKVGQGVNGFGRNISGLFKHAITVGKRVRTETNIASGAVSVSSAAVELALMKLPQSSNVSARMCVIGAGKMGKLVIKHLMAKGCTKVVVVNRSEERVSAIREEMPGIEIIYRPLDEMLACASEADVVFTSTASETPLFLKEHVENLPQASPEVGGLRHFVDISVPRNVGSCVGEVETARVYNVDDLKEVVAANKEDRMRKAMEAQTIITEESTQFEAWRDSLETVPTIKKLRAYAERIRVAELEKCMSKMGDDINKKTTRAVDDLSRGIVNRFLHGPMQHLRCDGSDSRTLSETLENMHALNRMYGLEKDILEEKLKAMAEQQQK


Legend:
Details in all cases: both partners purified
[1] = biological target: T1, 6xHIS-GluTR1 (glutamyl-tRNA reductase 1); assay: MST; as a3 with addition of 1 µM hemin
[2] = biological target: T1, 6xHIS-GluTR1 (glutamyl-tRNA reductase 1); assay: MST; 200 nM labeled 6xHIS-GBP-FLUO constant, 6xHIS-GluTR1 titrated from 7.5 µM, PBS, Monolith NT.115; Kd from initial fluorescence quenching; no hemin; n = 2
[3] = biological target: T2, 6xHIS-GluTR1-FLUO (fluorophore-labeled …); assay: MST; as a5 with addition of 1 µM hemin
[4] = biological target: T2, 6xHIS-GluTR1-FLUO (fluorophore-labeled …); assay: MST; 200 nM labeled 6xHIS-GluTR1-FLUO constant, 6xHIS-GBP titrated from 7.5 µM, PBS, Monolith NT.115; MST signal 1.5 s after turning on the laser; no hemin; n = 2

Row | Kd [1] [nM] | Kd [2] [nM] | Kd [3] [nM] | Kd [4] [nM] | Binder
1 | 931 | 65 | – | – | 6xHIS-GBP-FLUO (fluorophore-labeled 6xHIS-GBP) (natural protein, Arabidopsis, UniProt Q9LU39 43-317, looked up, fluorophore from the RED-NHS (Amine Reactive) protein labeling kit (second generation), same construct as m3, labeled; m3 after amine-reactive labelling; also called labeled HIS-GBP; labeled GBP; source: E. coli BL21, purified (Ni-NTA), labeled with the RED-NHS protein labeling kit) SVSTTLDTPATASTHKPFPAEVSRSIMELSSVGTLSTLTHDGWPLGVGVRFAVDKDGTPVLCLNRSVSPDKRSALHVQLEQCGLRTPQCTIQGSIGRPGDDTVLKRLSATWREKFGEEVKEDSLYVVAVDRVLQMEDFMEDGIWVASSDYKNASPDPLRDIAEDIVNQINANNMEDIFRFCNVYVDLDFVVSETKMIWMDRLGFDLRVWSPRGVYDVRIPFPMEVTDEKGAKSSFNGMSQLAWEVEKSYCPADFNKVKLLKQVVGSSHSHKGGGQ
2 | – | – | 806 | 113 | 6xHIS-GBP (GluTR-binding protein) (natural protein, Arabidopsis, UniProt Q9LU39 43-317, looked up, Czarnecki et al., 2011; Wang et al., 2018; probably without the transit peptide; source: E. coli BL21, purified (Ni-NTA)) SVSTTLDTPATASTHKPFPAEVSRSIMELSSVGTLSTLTHDGWPLGVGVRFAVDKDGTPVLCLNRSVSPDKRSALHVQLEQCGLRTPQCTIQGSIGRPGDDTVLKRLSATWREKFGEEVKEDSLYVVAVDRVLQMEDFMEDGIWVASSDYKNASPDPLRDIAEDIVNQINANNMEDIFRFCNVYVDLDFVVSETKMIWMDRLGFDLRVWSPRGVYDVRIPFPMEVTDEKGAKSSFNGMSQLAWEVEKSYCPADFNKVKLLKQVVGSSHSHKGGGQ
